test: soluble on expression in E. coli; label from the status in PepcDB or PDB records

| Sequence | soluble on expression in E. coli |
| --- | --- |
| MERVSITERPDWRDKATEYGFNFHTMYGEPYWCEDAYYKLTLAQVEKLEDVTAELHQMCLKVVERVIASDELMTKFRIPKHTWGFVRQSWQTQQPSLYSRLDLAWDGIGEPKLLENNADTPTSLYEAAFFQWIWLEDQINAGNLPEGSDQFNSLQEKLIERFAELREQYGFQLLHLTCCRDTVEDRGTIQYLQDCAAEAEIATEFLYIDDIGLGEKGQFTDLQDQVIANLFKLYPWEFMLREMFSTKLEDAGVRWLEPAWKSIISNKALLPLLWEMFPDHPNLLPAYFAEDEHPPMDKYVVKPIFSREGANVSIIENGKTIESVEGPYGEEGMIVQQFYPLPKFGDSYTLIGSWLINDQPAGIGIREDRALITQDLSRFYPHIFVEG | not soluble |
| MDKLGLSKRGYFDFALKNKKWILLAVSGYGAFRVYHSPSISQKRKRISKLFTLLLNLIEAASDSAETVSVISKDLTEFLRSDSDQIPNSLKQISKIAKSDELNSSLIRFTQAMTVGLIRGIDDGSGSGFTDRVMDKLFTKSGSGFASAIVGSFARNLVVALYSSAGDGSNSKLLDAVFSDDGRRLIGDCVQRFVSTAVSVYLDKTSDVNVFDDLFAGLTNPKHEGKVKQTLVTLCNSAVETFVRASRKPVQLNRSSSCQDSSQTLTVGSTKQATWIDRVSSSLSVPSNRKYVVDLTGRVTFETVRSLLEVLIERANGKVESYVEKVRERGNETRRFVRVKTSLLHSLCLSLCLQIVEAPWMLTPRN | not soluble |
| GKDWNWNVGGVLGYNKNKVTYVNVKAPAIFLQFDYPAAYPRVGVPYNAIYGYLWAGLDSKGQPQVYDSEGNIHVSSSPQKVEDAVYLGTSVPVYSGAINTNLRYKNWELAAQLLFEGGHKMRNTNIAYPGLGVTSKDVSKRWRQPGDEAYTDVPRYVPSESKDYNSYSSDLYSKASIHVLDADNWRLKNLSVTYHVPASVCQKFYVKNARIMLGMENVFTLAKSRDVKWMLGGYSKPNYLCNVNLNF | not soluble |
| FDLNDFLEQKVLVRMEAIINSMTMKERAKPEIIKGSRKRRIAAGSGMQVQDVNRLLKQFDDMQRMMKKM | soluble |
| MAHHHHHHMITLQLEQHRQQLENELRKVQLQQAQQQQQLQHVQHHHNQHNQHQQQQQLQYQQSLPPVQTTMVTIDGRLYRMVSASSGEAFVNRGQPCRDLHFVDRSALVSDGSAGADGRTEAAAPQPSNHPGVCMPVSPQAELSPQQQQQHMIITVAGDRSALGETTSAAAAASLAKSSAPGTNVMLVMPTPSASHKVKYGY | soluble |
| LDNPFYYLENFRQVLGWIAQRYDDLLDASERRFITEFAGLPMPAQGLLVRMVMRKGVMFRASKLSYAEIGDPHQAVLPLLQQDWVDTSPPLGLSELFQLLRRDELSQCFKAHAVKGPERKHEWLERLQPLYETAQPLEQWHPLLPDAVFGLKIMPLCDRLRLLYFGNLYQEWSEFVLADLGIYRYEKVEFSADSRGINQRDDINVCLQLHACREALETCVELHALAERAIAIECSNPWLNMRRAKLLYRIGQHAERLQDWPLALSVYRQSNYPGARSRQIRVLERNAEYTEAMALVEQAGLAPESDAEVQHLSRGTPRLQRKLGLTAARRPAARVVSRLDVQVTPSPGTSVERLIRLHLEEQQGGEVHYVENTLINSLFGLLCWRAIFAPLPGAFFHPFHSAPSDLYSPDFYQRRAALFDECLLQLESNDYRVTIREHFQSKSGLQSPFVFWGALTPQLLEQALHCLPADHLRLWFRRLLQDIKANRTGMPDLIQFFPEQRGYRMIEVKGPGDRLQDNQLRWLDFCAEHGMPVEVCYVQWA | not soluble |
| GMDKQAILDNIHQTWQEEANAISRLPEVTSEEALVKTVEKIAECTGKIVVAGCGTSGVAAKKLVHSFNCIERPAVFLTPSDAVHGTLGVLQKEDILILISKGGNTGELLNLIPACKTKGSTLIGVTENPDSVIAKEADIFFPVSVSKEPDPFNMLATASTMAVIASFDAVIVCLMTYMNYTKEQFSVIHPGGAVGNKLLNK | soluble |
| MRIMASHDTPVSPAGILIDLDGTVFRGNELIEGAREAIKTLRRMGKKIVFLSNRGNISRAMCRKKLLGAGIETDVNDIVLSSSVTAAFLKKHYRFSKVWVLGEQGLVDELRLAGVQNASEPKEADWLVISLHETLTYDDLNQAFQAAAGGARIIATNKDRSFPNEDGNAIDVAGMIGAIETSAQAKTELVVGKPSWLMAEAACTAMGLSAHECMIIGDSIESDIAMGKLYGMKSALVLTGSAKQGEQRLYTPDYVLDSIKDVTKLAEEGILILEHHHHHH | not soluble |
| MASASRLPPLPALRDFIHMYRLRAKKILSQNYLMDMNITRKIAKHAKVIEKDWVIEIGPGPGGITRAILEAGASRLDVVEIDNRFIPPLQHLAEAADSRMFIHHQDALRTEIGDIWKNETARPESVDWHDSNLPAMHVIGNLPFNIASPLIIKYLRDMSYRRGVWQYGRVPLTLTFQLEVAKRLCSPIACDTRSRISIMSQYVAEPKMVFQISGSCFVPRPQVDVGVVRFVPRKTPLVNTSFEVLEKVCRQVFHYRQKYVTKGLKTLYPEELEDELSDDLLKKCRIDPTTTSIRLGIEQFADLAEGYNEQCIRYPGLFLYDYTNKLHNLEDLSKEPNALPPPVPIFAPAPTIDSADNTWSLKNFNCS | not soluble |
| MGSDKIHHHHHHMQQPLAYRMRPKTLKDVVGQQQLVGPGKIIARMVKAKRLSSMILYGPPGTGKTSIASAIAGSTKYAFRMLNAATDSKKQLQIVAEEAKMSGTVILLLDEIHRLDKTKQDFLLPHLESGRIILIGATTENPYISINPAIRSRTQIFQVFPLTDDDIQHAVERALADEKNGLGSYHVDLAPAAMHHLCTATNGDLRSALNGLELAVLSSSPADDGTIAISQQTIEECLQKKALSADKDGDAHYDVISAFQKSIRGSDVNAALHYLARLVEAGDLKSIMRRLMVIAYEDIGLANPAACAHTVAAVQAADQLGFPEARIPLADAVIELALSPKSNSGISAIDAALTTVRDGHFGDIPADIKDAHYQGAAKLGHGVGYDFPHDHPGDWVAQQYLPDAIKSAKYYEPKTNGRYETALAQQYEKLLKANERNR | not soluble |
| MLPNNQWQIPINNGLTHQENMAAHAAVMKLRVHDLQSIISQLSLRKPRPQKSEHQKVVVESLRDPHHARQIYQMVISLIFSSLQASNFPNGNYEMQKRPATTSQVRSHPYVLPSRSGASNHLVNHHYQQQQQQQPQPHNLLHQQMMASHHSHLQQQHHPSTVRWLTPELLEEQLRGSMRYGAPAAAAATNAPLHSSFPNHGRSSQQSLQKSEKSNRPKKMYADNFEPLPLPFYDVISVLLKPVELHSSDSPTLKQTKQLQFPFLLTAEHISKISYRADVTPLPRYELQLRFFNLTEPVQGPQKDDFPLNCYARVDDSVVQLPNVIPTNKTNAEPKRPSRPVNITSNMNRYKKEHTVAVEWLADKRVWAAGVYFVHRVNSDILFKRLNQNVSRHRSLEVTKQEVIKKLSGGEDDIAMDRLNISLLDPLCKTRMTTPSRCQDCTHLQCFDLLSYLMMNEKKPTWQCPVCSSNCPYDRLIVDDYFLDMLAKVDKNTTEVELKEDGSYDVIKEEAFCISDDDDDDVVPATVNGTASCSSTNGNGLANEAAKKKPADDDIITLSDDDDEELNRGIMNSLNDSFSPGRHTASAELAAQKTPPQQKKKTKDDDIEIITLDDTPPRPVAASANLPMRQMSQQNQMPVGSSPSGMASTQMGMNEGASKTIRDALNKIGEQSANSSTQSSPLVQLHHTTHPLNFAQSSYMNPSSGSQTPTSQYGYSPMINQAPHFQMQNGLIGRNNQMVHMQQHHLQQQQQQQQSPQIMSPSFYAQQQMSNGGAFAYYPPQYPQQQYRQN | not soluble |
| MYYERPVFDIVDTWEIREREVLKPVLSVAEEDYCYFVQNTVASAQRSWVDLVANLFNSPDSDIDDALNRFADAPCLHGPTLEPMNLILKGSPMYVYCSFEEMRSCATKRFYEGISNRGVVICTVPPYAEGVTRDDMSVWQNQACVNTCSGKNDLDAYIAFLPTSSLQESSYWHTKNGIYSFLAPSQTDAFCCEILCVGRALFEDRSRKEKLRNCLLKLLNYRLKLLFAAALEHHHHHH | not soluble |
| MSIEEEDTNKITCTQDFLHQYFVTERVSIQFGLNNKTVKRINKDEFDKAVNCIMSWTNYPKPGLKRTASTYLLSNSFKKSATVSLPFILGDPVCMPKRVESNNNDTCLLYSDTLYDDPLIQRNDQAGDEIEDEFSFTLLRSEVNEIRPISSSSTAQILQSDYSALMYERQASNGSIFQFSSP | not soluble |
| MGHHHHHHSHMNCCGIWPFGKPGVPYKRLADVETDERMEMEIRLGMPPGVLAADLIRSTKDKQVLEQLYLLAVQANNLTEHIKRFTLGEIPEECKNVTRSQLEKLKSVQHIIWNTMISLAAGAISVDEATLPALLDKRAEETVALLEMEKIATAVKLDETAAWATDIAGIVSSQPLATPPSESPDQIALKKATQLSNAVY | soluble |

— the DeepSol protein solubility set
